The values below come from publication PMC12784932, “Keratin 15 promotes a progenitor cell state in basal keratinocytes of skin epidermis” (The Journal of Cell Biology, 2026).

For the assay, the target named is T1, EGFP-K14 WT (human keratin 14) (human, UniProt P02533 1-472).
T1 construct: keratin 14 (K14), human; codon-optimized KRT14 cDNA synthesized by Twist Biosciences; Co-expressed with untagged human K5, its type II copolymerization partner; also called WT K14; source: HeLa, transfected (nucleofection) together with untagged K5, in lysate (detergent-soluble pool)
T1 sequence (looked up): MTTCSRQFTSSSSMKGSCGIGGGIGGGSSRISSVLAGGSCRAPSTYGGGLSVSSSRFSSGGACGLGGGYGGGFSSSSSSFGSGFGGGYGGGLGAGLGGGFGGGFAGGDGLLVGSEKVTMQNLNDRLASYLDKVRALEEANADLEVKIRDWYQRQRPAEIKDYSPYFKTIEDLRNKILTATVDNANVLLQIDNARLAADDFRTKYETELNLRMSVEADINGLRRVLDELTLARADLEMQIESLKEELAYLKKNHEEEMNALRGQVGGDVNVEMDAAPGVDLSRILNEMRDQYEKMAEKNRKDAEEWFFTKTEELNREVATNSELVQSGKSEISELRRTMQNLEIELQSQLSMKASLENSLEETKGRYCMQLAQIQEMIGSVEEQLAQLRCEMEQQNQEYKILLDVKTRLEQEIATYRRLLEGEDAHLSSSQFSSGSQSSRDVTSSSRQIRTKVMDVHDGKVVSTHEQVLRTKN
Put plainly: co-IP; GFP-Trap Magnetic Agarose (25 μl beads) on 600 μg lysate of HeLa cells cotransfected with untagged K5 and the EGFP-tagged keratin; lysis in 10 mM Tris/Cl pH 7.5, 150 mM NaCl, 0.5 mM EDTA, 0.5% Nonidet P-40 Substitute (detergent-soluble pool); 4°C, 1 h; western blot for endogenous 14-3-3σ; 14-3-3σ signal normalized to GFP. Particulars: partners not purified.

B1: 14-3-3σ (stratifin) (natural protein, human (endogenous in HeLa), UniProt P31947 1-248, looked up)
chain: MERASLIQKAKLAEQAERYEDMAAFMKGAVEKGEELSCEERNLLSVAYKNVVGGQRAAWRVLSSIEQKSNEEGSEEKGPEVREYREKVETELQGVCDTVLGLLDSHLIKEAGDAESRVFYLKMKGDYYRYLAEVATGDDKKRIIDSARSAYQEAMDISKKEMPPTNPIRLGLALNFSVFHYEIANSPEEAISLAKTTFDEAMADLHTLSEDSYKDSTLIMQLLRDNLTLWTADNAGEEGGEAPQEPQS
notes: 14-3-3σ / stratifin, endogenous in HeLa cells; also called stratifin/14-3-3σ; endogenous 14-3-3σ; source: endogenous, HeLa lysate; endogenous, fixed HeLa cells
As for B1, the “fold 14-3-3σ in the immunoprecipitate (normalized to GFP) against the EGFP-K15 WT immunoprecipitate” value was > 2 fold.
